Laboratory results reported in patent US20240025997A1.
Numbering of substitutions follows the chain as printed. One block for each binder: values may come before it.

Key:
[1] = biological target: soluble rhesus ILT2-ECD (rhesus macaque); experiment: SPR (Biacore), antibody captured on Protein A chip, soluble rhesus ILT2-ECD injected (1.6-200 nM), 25 C
[2] = biological target: cynomolgus monkey ILT2 (protein injected in Biacore) (cynomolgus monkey); experiment: SPR (Biacore), antibody captured on Protein A chip, ILT protein injected, 25 C
Sequence of cynomolgus monkey ILT2 (protein injected in Biacore) (cynomolgus monkey) (chain, as listed by the source limits assumed, form in doubt): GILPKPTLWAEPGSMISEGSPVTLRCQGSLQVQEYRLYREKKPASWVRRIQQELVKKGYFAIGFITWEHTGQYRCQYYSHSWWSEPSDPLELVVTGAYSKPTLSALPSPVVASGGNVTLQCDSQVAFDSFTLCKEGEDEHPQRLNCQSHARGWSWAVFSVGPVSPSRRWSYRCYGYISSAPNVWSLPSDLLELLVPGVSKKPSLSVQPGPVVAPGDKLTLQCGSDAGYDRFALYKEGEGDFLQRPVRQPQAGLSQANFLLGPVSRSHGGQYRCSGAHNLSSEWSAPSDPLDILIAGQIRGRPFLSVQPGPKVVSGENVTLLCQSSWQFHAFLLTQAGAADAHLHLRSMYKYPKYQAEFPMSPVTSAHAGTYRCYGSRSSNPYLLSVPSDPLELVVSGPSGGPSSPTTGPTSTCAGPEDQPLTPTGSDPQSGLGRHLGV

[3] = biological target: ILT2 and/or ILT4 on human CD14+ monocytes; experiment: flow cytometry, fluorescently-labelled antibody on CD14+ monocytes of human PBMC
[4] = biological target: human ILT2 chimeric reporter receptor (ILT2 extracellular domain fused to PILRbeta transmembrane/intracellular domain) (human), Q8NHL6
Sequence of human ILT2 chimeric reporter receptor (ILT2 extracellular domain fused to PILRbeta transmembrane/intracellular domain) (human), Q8NHL6 (Q8NHL6 24-461 limits assumed, change not shown): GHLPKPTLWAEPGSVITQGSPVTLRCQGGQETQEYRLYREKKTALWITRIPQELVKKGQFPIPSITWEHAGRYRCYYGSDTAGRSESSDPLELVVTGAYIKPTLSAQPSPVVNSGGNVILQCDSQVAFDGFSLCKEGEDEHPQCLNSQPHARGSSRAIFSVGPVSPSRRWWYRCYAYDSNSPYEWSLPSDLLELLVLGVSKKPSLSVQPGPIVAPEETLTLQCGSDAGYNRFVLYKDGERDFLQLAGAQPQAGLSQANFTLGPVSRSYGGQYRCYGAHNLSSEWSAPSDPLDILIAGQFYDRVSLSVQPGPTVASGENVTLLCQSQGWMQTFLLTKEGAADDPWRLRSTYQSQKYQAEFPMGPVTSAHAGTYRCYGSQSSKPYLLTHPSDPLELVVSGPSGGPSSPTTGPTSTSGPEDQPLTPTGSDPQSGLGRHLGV

[5] = biological target: soluble rhesus ILT2-ECD (rhesus macaque); experiment: SPR (Biacore), antibody captured on Protein A chip, soluble rhesus ILT2-ECD injected, 25 C, low resolution parameters
[6] = biological target: T1, human ILT4 chimeric reporter receptor (ILT4 extracellular domain fused to PILRbeta transmembrane/intracellular domain) (human), Q8N423
T1 sequence (Q8N423 other isoform, or with tags, fused parts or gaps mutant limits assumed): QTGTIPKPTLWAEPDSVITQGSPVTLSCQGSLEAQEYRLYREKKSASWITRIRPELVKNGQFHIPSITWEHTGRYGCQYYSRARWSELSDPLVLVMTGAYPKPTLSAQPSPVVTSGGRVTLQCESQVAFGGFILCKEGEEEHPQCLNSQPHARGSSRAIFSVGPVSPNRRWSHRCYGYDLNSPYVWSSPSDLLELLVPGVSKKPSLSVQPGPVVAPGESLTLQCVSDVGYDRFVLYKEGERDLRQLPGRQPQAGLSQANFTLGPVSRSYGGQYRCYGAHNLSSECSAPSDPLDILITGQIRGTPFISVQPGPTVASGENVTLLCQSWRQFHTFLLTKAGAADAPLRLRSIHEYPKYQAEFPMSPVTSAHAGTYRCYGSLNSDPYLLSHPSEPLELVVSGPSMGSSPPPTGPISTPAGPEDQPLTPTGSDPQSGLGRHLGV

[7] = biological target: cyno ILT2 chimeric reporter receptor (cyno ILT2 extracellular domain fused to PILRbeta transmembrane/intracellular domain) (cynomolgus monkey)
[8] = biological target: ILT2 and/or ILT4 on human CD14+ monocytes; experiment: flow cytometry, fluorescently labelled antibody on CD14+ monocytes of human PBMC, donor Human 2, geometric MFI
[9] = biological target: ILT2 and/or ILT4 on human CD14+ monocytes; experiment: flow cytometry, fluorescently labelled antibody on CD14+ monocytes of human PBMC, donor Human 1, geometric MFI
[10] = biological target: soluble rhesus ILT2-ECD (rhesus macaque); experiment: SPR (Biacore), antibody captured on Protein A chip, soluble rhesus ILT2-ECD injected, 25 C, low resolution parameters; low resolution parameters
[11] = biological target: T1, human ILT4 chimeric reporter receptor …; remark: listed apart in the source

Sequence of soluble rhesus ILT2-ECD (rhesus macaque) (chain, as listed by the source limits assumed, form in doubt): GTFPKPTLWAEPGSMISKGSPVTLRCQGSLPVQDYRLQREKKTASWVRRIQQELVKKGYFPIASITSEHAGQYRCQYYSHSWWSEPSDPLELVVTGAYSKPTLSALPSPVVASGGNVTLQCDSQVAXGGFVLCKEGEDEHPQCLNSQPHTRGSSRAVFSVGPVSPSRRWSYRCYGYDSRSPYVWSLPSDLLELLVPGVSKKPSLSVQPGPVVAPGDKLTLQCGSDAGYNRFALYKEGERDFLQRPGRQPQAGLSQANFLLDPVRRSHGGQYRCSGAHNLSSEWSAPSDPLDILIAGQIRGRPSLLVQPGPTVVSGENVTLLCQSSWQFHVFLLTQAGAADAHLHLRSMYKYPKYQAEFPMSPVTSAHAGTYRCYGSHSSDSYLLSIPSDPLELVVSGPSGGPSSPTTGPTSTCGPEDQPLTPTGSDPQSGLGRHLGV

Kd [1]: 2.3 nM | koff [1]: 0.0014 s⁻¹ | kon [1]: 590000 M⁻¹ s⁻¹
B1: anti-ILT4 antibody 47C8 (antibody, V domains shown)
VH: EVQLQQSGPDLVKPGASVKISCKASGYSFTGYYMHWVKQSHGKSLEWIGRVYPNNGDTSYNQKFKVKAILTVDKSSSTAYMELRSLTSEDSAVYYCARGATVVESLFAYWGQGTLVTVSA
VL: DIVLTQSPASLAVSLGQRATISCRASESVDNYGNNFLHWYQQKPGQPPKLLIYRTSNLESGIPARFSGSGSRTDFTLTINPVEADDVATYYCQQSNEDPYTFGGGTKLEIK

Kd [2]: 19.1 nM | koff [2]: 0.06 s⁻¹ | kon [2]: 3.4e+06 M⁻¹ s⁻¹ | EC50 [3]: 8.8 nM
B2: humanized anti-ILT2/ILT4 antibody Hz73D1.v1 (antibody, human IgG1, kappa, N297G, V domains shown)
VH: QVQLVQSGAEVKKPGASVKVSCKASGYTFTDYYINWVRQAPGQGLEWMGNVNPNDGGTTYNQKFKGRVTMTTDTSTSTAYMELRSLRSDDTAVYYCARREIYFYGTIYYYAMDYWGQGTLVTVSS
VL: DIQLTQSPSFLSASVGDRVTITCRASESVDYYGNSFMYWYQQKPGKAPKLLIYFASNLESGVPSRFSGSGSGTEFTLTISSLQPEDFATYYCQQNNEDPWTFGGGTKVEIKR

IC50 (read off the curve), %GFP+ human ILT2 reporter cells co-cultured with Raji cells [4]: 0.2 nM | IC50 (read off the curve), %GFP+ human ILT4 reporter cells co-cultured with Raji cells [6]: 0.07 nM | Kd [1]: 1.2 nM | koff [1]: 6e-05 s⁻¹ | kon [1]: 50000 M⁻¹ s⁻¹ | IC50 (read off the curve), %GFP+ cyno ILT2 reporter cells co-cultured with Raji cells [7]: 0.04 nM | EC50 (read off the curve) [8]: 5 nM | EC50 (read off the curve) [9]: 4 nM
B5: anti-ILT2/ILT4 antibody 73D1 (antibody, V domains shown)
VH: AVQLQQSGPELVKPGASVKISCKASGYTFTDYYINWVKQSHGKSLQWIGNVNPNDGGTTYNQKFKGKATLTVDKSSSTAYMELRSLTSEDSAVYYCARREIYFYGTIYYYAMDYWGQGTSVTVSS
VL: DIVLTQSPASLAVSLGQRATISCRASESVDYYGNSFMYWYQQKPGRPPNLLIYFASNLESGVPARFSGSGSRTDFTLTIDPVEADDAATYYCQQNNEDPWTFGGGTKLEIK

IC50 (read off the curve), %GFP+ human ILT4 reporter cells co-cultured with Raji cells [6]: 0.02 nM | Kd [1]: 2.3 nM | koff [1]: 0.0026 s⁻¹ | kon [1]: 1.1e+06 M⁻¹ s⁻¹ | IC50 (read off the curve), %GFP+ human ILT4 reporter cells co-cultured with 721.221-HLA-G cells [11]: 0.02 nM
B9: anti-ILT4 antibody 48A5 (antibody, V domains shown)
VH: QIQLVQSGPELKKPGETVKISCKASGYTFTNYGMNWVKQAPGKGLKWMGWINTYIGEPIYADDFKGRFAFSLETSASTAYLQINNLKNEDMATYFCARRSDYDGYAMDYWGQGTSVTVSS
VL: DIVMSQSPSSLAVSVGERVTMSCKSSQSLLYSGNQKNYLAWYQQKPGQSPKLLIYWASTRESGVPDRFTGSGSGTDFTLTISSVKAEDLAVYYCQQHDSYPTFGGGSRLEIK

Further lines, the binder ahead of its results:

B3: anti-ILT2 antibody 27F9 (antibody, V domains shown)
VH: QVQLKESGPGLVAPSQSLSITCTVSGFSLTNYGVSWVRQPPGKGLEWLGIIWGDGSTNYHSALISRLSISKDNSKSQVFLKLNSLQADDTATYYCAKPNWDTYAMDFWGQGTSVTVSS
VL: DIQMTQTTSSLSASLGDRVTISCRASQDISNFLNWYQQKPDGTVKLLIYCTSKLHSGVPSRFSGSGSETDYSLTISNLEQEDIATYFCQQGNTLPPTFGGGTKLEII
IC50 (read off the curve), %GFP+ human ILT2 reporter cells co-cultured with Raji cells [4]: 0.04 nM

B4: anti-ILT2/ILT4 antibody 47H6 (antibody, V domains shown)
VH: EVQLQQSGPELVKPGASVKISCKASGYTFTDYYMNWVKQSHGKSLEWIGDFNPNNGGTTYNQKFEGKATLTVDKSSNTAYMDLRSLTSEDSAVYYCARGRFYYGSLYSFDYWGQGTTLTVSS
VL: DIQMTQSPASLSASVGETVTITCRASGNIHNYLAWYQQKQGKSPHLLVYNAKTLADGVPSRFSGSGSGTQYSLKINNLQPEDFGSYYCQHFWTSITFGAGTKLDLK
Kd [5]: < 0.1 nM | koff [5]: 1e-05 s⁻¹ | kon [5]: 47000 M⁻¹ s⁻¹

B6: anti-ILT2/ILT4 antibody 73C4 (antibody, V domains shown)
VH: B5 VH with I34M, Q46E, D55N, T59S
VL: B5 VL
Kd [5]: < 0.1 nM | koff [5]: 1e-05 s⁻¹ | kon [5]: 31000 M⁻¹ s⁻¹

B7: anti-ILT2/ILT4 antibody 51A1 (antibody, V domains shown)
VH: EVQLVESGGGLVQPKGSLKLSCAASGFTFNTYAMHWVRQAPGKGLEWVARIRSKSSNYATYYADSVKDRFTISRDDSQSMLYLQMNNLKTEDTAMYYCVRDGIYYYGTMYYYAMDYWGQGTSVTVSS
VL: B5 VL with D1N, R46Q, N49K, D85A, T89S
Kd [1]: 0.2 nM | koff [1]: 2.1e-05 s⁻¹ | kon [1]: 100000 M⁻¹ s⁻¹

B8: anti-ILT2/ILT4 antibody 64A12 (antibody, V domains shown)
VH: B7 VH with G107D
VL: B5 VL with D1N, M37I, R46Q, N49K, D85A, T89S
kon [10]: 20000 M⁻¹ s⁻¹ | Kd [5]: < 0.1 nM | koff [5]: 1e-05 s⁻¹
